Data set [1] deals with the molecule itself. As to the kind of experiment: not stated; oligomeric assembly of LH3 N223S, Supplementary Fig. 11B; method not given.
Data set [2] deals with the molecule itself. Nature of the data set: SEC-SAXS; 50 uL LH3 at 4 mg/mL on Superdex 200 PC 3.2/300 Increase, 25 mM HEPES/NaOH, 200 mM NaCl, pH 8.0, online SAXS at ESRF BM29.
Data set [3] deals with the molecule itself. As to the kind of experiment: SEC; analytical size exclusion, Superdex 200 5/150 GL, 25 mM HEPES/NaOH, 200 mM NaCl, pH 8.0.

The source of these data is publication PMC6082870, “Molecular architecture of the multifunctional collagen lysyl hydroxylase and glycosyltransferase LH3” (Nature Communications, 2018).

B1: LH3 N223S pathogenic variant (enzyme, human, UniProt O60568 25-738, looked up)
chain: SDRPRGRDPVNPEKLLVITVATAETEGYLRFLRSAEFFNYTVRTLGLGEEWRGGDVARTVGGGQKVRWLKKEMEKYADREDMIIMFVDSYDVILAGSPTELLKKFVQSGSRLLFSAESFCWPEWGLAEQYPEVGTGKRFLNSGGFIGFATTIHQIVRQWKYKDDDDDQLFYTRLYLDPGLREKLSLNLDHKSRIFQNLSGALDEVVLKFDRNRVRIRNVAYDTLPIVVHGNGPTKLQLNYLGNYVPNGWTPEGGCGFCNQDRRTLPGGQPPPRVFLAVFVEQPTPFLPRFLQRLLLLDYPPDRVTLFLHNNEVFHEPHIADSWPQLQDHFSAVKLVGPEEALSPGEARDMAMDLCRQDPECEFYFSLDADAVLTNLQTLRILIEENRKVIAPMLSRHGKLWSNFWGALSPDEYYARSEDYVELVQRKRVGVWNVPYISQAYVIRGDTLRMELPQRDVFSGSDTDPDMAFCKSFRDKGIFLHLSNQHEFGRLLATSRYDTEHLHPDLWQIFDNPVDWKEQYIHENYSRALEGEGIVEQPCPDVYWFPLLSEQMCDELVAEMEHYGQWSGGRHEDSRLAGGYENVPTVDIHMKQVGYEDQWLQLLRTYVGPMTESLFPGYHTKARAVMNFVVRYRPDEQPSLRPHHDSSTFTLNVALNHKGLDYEGGGCRFLRYDCVISSPRKGWALLHPGRLTHYHEGLPTTWGTRYIMVSFVDP
notes: human LH3 (PLOD3), GenBank BC011674.2, devoid of the N-terminal signal peptide, with the pathogenic mutation N223S; The mutation was reported to add an N-linked glycosylation on Asn221; not shown: 6xHis, N-terminal, cleaved
As to B1, in data set [1], the “stoichiometry N” value was found to be 2.

B2: human lysyl hydroxylase 3 (LH3/PLOD3), wild type (enzyme, UniProt O60568 25-738, looked up)
chain: SDRPRGRDPVNPEKLLVITVATAETEGYLRFLRSAEFFNYTVRTLGLGEEWRGGDVARTVGGGQKVRWLKKEMEKYADREDMIIMFVDSYDVILAGSPTELLKKFVQSGSRLLFSAESFCWPEWGLAEQYPEVGTGKRFLNSGGFIGFATTIHQIVRQWKYKDDDDDQLFYTRLYLDPGLREKLSLNLDHKSRIFQNLNGALDEVVLKFDRNRVRIRNVAYDTLPIVVHGNGPTKLQLNYLGNYVPNGWTPEGGCGFCNQDRRTLPGGQPPPRVFLAVFVEQPTPFLPRFLQRLLLLDYPPDRVTLFLHNNEVFHEPHIADSWPQLQDHFSAVKLVGPEEALSPGEARDMAMDLCRQDPECEFYFSLDADAVLTNLQTLRILIEENRKVIAPMLSRHGKLWSNFWGALSPDEYYARSEDYVELVQRKRVGVWNVPYISQAYVIRGDTLRMELPQRDVFSGSDTDPDMAFCKSFRDKGIFLHLSNQHEFGRLLATSRYDTEHLHPDLWQIFDNPVDWKEQYIHENYSRALEGEGIVEQPCPDVYWFPLLSEQMCDELVAEMEHYGQWSGGRHEDSRLAGGYENVPTVDIHMKQVGYEDQWLQLLRTYVGPMTESLFPGYHTKARAVMNFVVRYRPDEQPSLRPHHDSSTFTLNVALNHKGLDYEGGGCRFLRYDCVISSPRKGWALLHPGRLTHYHEGLPTTWGTRYIMVSFVDP
modifications: N-linked glycosylations at Asn63 and Asn548
notes: a vector signal peptide, 6xHis tag and TEV site precede the BamHI site, so a few vector residues may remain after TEV cleavage; also called wild-type LH3; full-length human LH3; not shown: 6xHis, N-terminal, cleaved
Consider B2, for which the “stoichiometry N” value in data set [2] was determined as 2.

B3: LH3 W148N-L150T glycosylated control mutant (enzyme, human, UniProt O60568 25-738, looked up)
chain: SDRPRGRDPVNPEKLLVITVATAETEGYLRFLRSAEFFNYTVRTLGLGEEWRGGDVARTVGGGQKVRWLKKEMEKYADREDMIIMFVDSYDVILAGSPTELLKKFVQSGSRLLFSAESFCWPENGTAEQYPEVGTGKRFLNSGGFIGFATTIHQIVRQWKYKDDDDDQLFYTRLYLDPGLREKLSLNLDHKSRIFQNLNGALDEVVLKFDRNRVRIRNVAYDTLPIVVHGNGPTKLQLNYLGNYVPNGWTPEGGCGFCNQDRRTLPGGQPPPRVFLAVFVEQPTPFLPRFLQRLLLLDYPPDRVTLFLHNNEVFHEPHIADSWPQLQDHFSAVKLVGPEEALSPGEARDMAMDLCRQDPECEFYFSLDADAVLTNLQTLRILIEENRKVIAPMLSRHGKLWSNFWGALSPDEYYARSEDYVELVQRKRVGVWNVPYISQAYVIRGDTLRMELPQRDVFSGSDTDPDMAFCKSFRDKGIFLHLSNQHEFGRLLATSRYDTEHLHPDLWQIFDNPVDWKEQYIHENYSRALEGEGIVEQPCPDVYWFPLLSEQMCDELVAEMEHYGQWSGGRHEDSRLAGGYENVPTVDIHMKQVGYEDQWLQLLRTYVGPMTESLFPGYHTKARAVMNFVVRYRPDEQPSLRPHHDSSTFTLNVALNHKGLDYEGGGCRFLRYDCVISSPRKGWALLHPGRLTHYHEGLPTTWGTRYIMVSFVDP
modifications: additional glycosylation at the compact N-terminal (crystal contact) interface, introduced by W148N-L150T
notes: human LH3 (PLOD3), GenBank BC011674.2, devoid of the N-terminal signal peptide, with W148N and L150T; not shown: 6xHis, N-terminal, cleaved
As for B3, the “stoichiometry N” value in data set [3] stood at 2.

B4: LH3 L715D mutant (enzyme, human, UniProt O60568 25-738, looked up)
chain: SDRPRGRDPVNPEKLLVITVATAETEGYLRFLRSAEFFNYTVRTLGLGEEWRGGDVARTVGGGQKVRWLKKEMEKYADREDMIIMFVDSYDVILAGSPTELLKKFVQSGSRLLFSAESFCWPEWGLAEQYPEVGTGKRFLNSGGFIGFATTIHQIVRQWKYKDDDDDQLFYTRLYLDPGLREKLSLNLDHKSRIFQNLNGALDEVVLKFDRNRVRIRNVAYDTLPIVVHGNGPTKLQLNYLGNYVPNGWTPEGGCGFCNQDRRTLPGGQPPPRVFLAVFVEQPTPFLPRFLQRLLLLDYPPDRVTLFLHNNEVFHEPHIADSWPQLQDHFSAVKLVGPEEALSPGEARDMAMDLCRQDPECEFYFSLDADAVLTNLQTLRILIEENRKVIAPMLSRHGKLWSNFWGALSPDEYYARSEDYVELVQRKRVGVWNVPYISQAYVIRGDTLRMELPQRDVFSGSDTDPDMAFCKSFRDKGIFLHLSNQHEFGRLLATSRYDTEHLHPDLWQIFDNPVDWKEQYIHENYSRALEGEGIVEQPCPDVYWFPLLSEQMCDELVAEMEHYGQWSGGRHEDSRLAGGYENVPTVDIHMKQVGYEDQWLQLLRTYVGPMTESLFPGYHTKARAVMNFVVRYRPDEQPSLRPHHDSSTFTLNVALNHKGLDYEGGGCRFLRYDCVISSPRKGWALLHPGRDTHYHEGLPTTWGTRYIMVSFVDP
notes: human LH3 (PLOD3), GenBank BC011674.2, devoid of the N-terminal signal peptide, with L715D; not shown: 6xHis, N-terminal, cleaved
B4: in data set [3], the binding result is “binds”.
